One molecule from article doi:10.1101/2022.06.14.496074 (bioRxiv, 2022) can be followed below.

The term stoichiometry N denotes a count of units in the complex or per binding partner.

In one assay the target is T1, TolC (E. coli, UniProt P02930 23-493).
T1 sequence: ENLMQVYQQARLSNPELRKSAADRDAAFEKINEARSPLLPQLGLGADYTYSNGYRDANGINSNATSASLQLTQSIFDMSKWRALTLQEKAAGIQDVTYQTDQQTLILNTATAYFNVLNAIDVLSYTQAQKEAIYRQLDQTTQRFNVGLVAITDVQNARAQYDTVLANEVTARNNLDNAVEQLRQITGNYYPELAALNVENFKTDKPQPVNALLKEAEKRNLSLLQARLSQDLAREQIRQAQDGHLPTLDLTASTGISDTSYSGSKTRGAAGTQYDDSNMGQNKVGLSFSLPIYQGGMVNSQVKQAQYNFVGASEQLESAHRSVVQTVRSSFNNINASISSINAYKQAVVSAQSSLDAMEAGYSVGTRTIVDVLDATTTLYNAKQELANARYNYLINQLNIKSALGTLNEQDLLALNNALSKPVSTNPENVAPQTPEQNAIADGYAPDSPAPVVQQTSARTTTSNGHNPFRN
Kind of assay: single-channel electrophysiology.

For assay [1], the target named is T2, AcrA (E. coli (K12 derived strain)), P0AE06.
T2 chain: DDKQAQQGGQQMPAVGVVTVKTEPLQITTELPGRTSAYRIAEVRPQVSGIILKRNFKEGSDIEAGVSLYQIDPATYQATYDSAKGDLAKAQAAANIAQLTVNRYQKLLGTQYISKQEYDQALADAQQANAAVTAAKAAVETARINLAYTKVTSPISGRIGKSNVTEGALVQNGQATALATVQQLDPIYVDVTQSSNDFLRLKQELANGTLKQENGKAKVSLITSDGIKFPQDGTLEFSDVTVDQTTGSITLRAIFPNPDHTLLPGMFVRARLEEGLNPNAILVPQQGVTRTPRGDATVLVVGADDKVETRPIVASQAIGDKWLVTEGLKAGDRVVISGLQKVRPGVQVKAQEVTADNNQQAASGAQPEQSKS
Put plainly: SEC. The following applies: remark: other sources report otherwise.

B1: AcrA (natural protein)
chain: T2 chain
Regarding B1, the binding result with TolC was “binds”. The molecule also returned a stoichiometry N in assay [1] of 2.
